In patent US20230213527A1, “COMPOSITIONS AND METHODS FOR POLYPEPTIDE ANALYSIS” (Quantum-Si Incorporated, priority 2021, published 2023):
Values belong to the molecule of their own block, whether it stands above or below them.

What was measured:
[1] = system: N-terminal lysine and histidine; experiment: Polarization binding assay of PS691, peptides with N-terminal arginine, lysine, histidine; settings: compared with N-terminal arginine
Method: In a separate screen, a diverse set of UBR-box domains from the UBR family of ubiquitin ligases that natively bind N-terminal arginine, lysine, and histidine were investigated. […] PS691 recognized arginine in a peptide with N-terminal RLA with a median PD of 0.23 s (FIG. 2C).
(§1) Binding affinity was measured by polarization using a labeled peptide. The polarization response and total intensity measurements were carried out at 20° C. on a microplate fluorometer with 480 nm excitation and 530 nm emission. The interaction of recognizer with labeled peptide containing a target N-terminal residue (XAKLDEESILKQK-FITC (SEQ ID NO: 833)) was performed in PBS buffer at pH 7.4 and readings were collected after 30 min. Multiple analyses were performed at increasing recognizer concentration at a fixed concentration of a target peptide to obtain a titration curve. An equilibrium polarization response at each concentration was plotted and fit to calculate the KD.

[2] = target: N-terminal leucine, isoleucine, and valine; experiment: Binding affinity of PS961 (bulk characterization, polarization), N-terminal leucine, isoleucine, valine
Description: To expand the set of recognizable NAAs, N-end rule pathway proteins were investigated as a source of additional recognizers. In a comprehensive screen of diverse ClpS family proteins, a group of ClpS proteins from the bacterial phylum Planctomycetes with native binding to N-terminal leucine, isoleucine, and valine was discovered. […] The median PD of binding to peptides with N-terminal LAA, IAA, and VAA was 1.21, 0.28, and 0.21 s, respectively, in agreement with bulk characterization (FIG. 7C).
as §1

- Binding to N-terminal lysine and histidine [1]: Lower affinity
B1: PS691: arginine recognizer generated from the UBR-box domain of K. lactis UBR1 protein (protein)
chain: MHSKFSHAGRICGAKFKVGEPIYRCKECSFDDTCVLCVNCFNPKDHTGHHVYTTICTEFNNGICDCGDKEAWNHTLFCKAEEGGSAGSAAGSGEFMHSKFSHAGRICGAKFKVGEPIYRCKECSFDDTCVLCVNCFNPKDHTGHHVYTTICTEFNNGICDCGDKEAWNHTLFCKAEEGGGSHHHHHHHHHHGGGSGGGSGGGSGLNDFFEAQKIEWHEGGGSGGGSGGGSGLNDFFEAQKIEWHE

- Affinity [2]: sub-micromolar
B2: PS961: Planctomycetes ClpS variant recognizer for N-terminal leucine, isoleucine, and valine (protein)
chain: MPTAASATESAIEDTPAPARPEVDGRTKPKRQPRYHVVLWDDDDHTYQYVVVMLRSLFGHPPSRGYRMAKEMDTQGRVIVLTTTREHAELKRDQIHAFGRDRLLARSKGSMKASIEAEE
